Laboratory results reported in the Immune Epitope Database (IEDB).

How the values were obtained:
HLA-A*02:01 [1] = assay: IEDB peptide-MHC binding, purified MHC/direct/fluorescence; filed as Kd, often an IC50 or EC50 that approximates it; ≥ and ≤ were set here for values at or beyond the usual limits of such assays
HLA-B*15:01 = assay: as above
HLA-A*69:01 = assay: as above
HLA-A*32:01 = assay: IEDB peptide-MHC binding, purified MHC/competitive/radioactivity; filed as Kd, often an IC50 or EC50 that approximates it; ≥ and ≤ were set here for values at or beyond the usual limits of such assays
HLA-A*30:01 = assay: as above
HLA-A*23:01 = assay: as above
HLA-A*24:02 = assay: as above
HLA-A*26:01 = assay: IEDB peptide-MHC binding, purified MHC/direct/fluorescence; filed as Kd, often an IC50 or EC50 that approximates it; ≥ and ≤ were set here for values at or beyond the usual limits of such assays
HLA-A*02:02 = assay: IEDB peptide-MHC binding, purified MHC/competitive/radioactivity; filed as Kd, often an IC50 or EC50 that approximates it; ≥ and ≤ were set here for values at or beyond the usual limits of such assays
HLA-A*02:03 = assay: as above
HLA-A*02:06 = assay: as above
HLA-A*02:01 [2] = assay: IEDB peptide-MHC binding, purified MHC/competitive/fluorescence; ≥ and ≤ were set here for values at or beyond the usual limits of such assays
HLA-B*40:01 [3] = assay: IEDB peptide-MHC binding, purified MHC/competitive/radioactivity; filed as Kd, often an IC50 or EC50 that approximates it; ≥ and ≤ were set here for values at or beyond the usual limits of such assays
HLA-A*01:01 = assay: IEDB peptide-MHC binding, purified MHC/direct/fluorescence; filed as Kd, often an IC50 or EC50 that approximates it; ≥ and ≤ were set here for values at or beyond the usual limits of such assays; settings: source organism: Haemophilus influenzae
HLA-A*03:01 = assay: as above
HLA-A*11:01 = assay: as above; settings: source organism: Haemophilus influenzae
HLA-A*31:01 = assay: as above; settings: source organism: Haemophilus influenzae
HLA-B*40:01 [4] = assay: as above; settings: source organism: Homo sapiens
HLA-A*33:01 = assay: IEDB peptide-MHC binding, purified MHC/competitive/radioactivity; filed as Kd, often an IC50 or EC50 that approximates it; ≥ and ≤ were set here for values at or beyond the usual limits of such assays; settings: source organism: Dengue virus 1 Brazil/97-11/1997
[5] = source organism: Bacillus cytotoxicus
[6] = source organism: Dengue virus 2 Jamaica/1409/1983
[7] = source organism: Vaccinia virus WR
[8] = source organism: Dengue virus 3 Martinique/1243/1999
[9] = source organism: Dengue virus 1 Brazil/97-11/1997
[10] = source organism: Mycobacterium tuberculosis
[11] = source organism: SARS coronavirus Tor2
[12] = source organism: Zaire ebolavirus
[13] = source organism: Haemophilus influenzae
[14] = source organism: Mammarenavirus caliense
[15] = source organism: Marburg virus - Musoke, Kenya, 1980

Sequence ILGLPTQTV has a Kd (HLA-A*02:01 [1]; source organism: SARS-CoV1) of 402 nM and a Kd (HLA-B*15:01; source organism: SARS-CoV1) of 1600 nM.
With ALSGFYYVQ the Kd (HLA-A*02:01 [1]; [5]) was 1400 nM and the Kd (HLA-A*69:01; [5]) was 2.36 µM.
Sequence GTGNIGETL has a Kd (HLA-A*32:01; [6]) of 8120 nM.
Work on TMLSIILVI yielded a Kd (HLA-A*32:01; [7]) of 15.6 nM.
In the case of LAVVSVSPLL, the Kd (HLA-A*30:01; source organism: Dengue virus 2 Peru/IQT2913/1996) is reported as 11900 nM.
Sequence PWLKNNQFCI has a Kd (HLA-A*23:01; [8]) of 102 nM and a Kd (HLA-A*24:02; [8]) of 224 nM.
KTSGYISSF was tested, and the Kd (HLA-A*32:01; [7]) was 0.502 nM.
In the case of EVAGAGSGF, the Kd (HLA-A*26:01; source organism: Mycobacterium tuberculosis variant bovis) is reported as 1.4 nM.
GYFTQTAGPW gave a Kd (HLA-A*23:01; [9]) of 1220 nM and a Kd (HLA-A*24:02; [9]) of no less than 70300 nM.
LLNNYTLKI showed a Kd (HLA-A*32:01; [7]) of 25.4 nM.
VVEPPRQLV was tested, and the Kd (HLA-A*02:01 [1]; [10]) was no less than 5000 nM and the Kd (HLA-A*69:01; [10]) was 20 µM.
LMYKGLPWNV gave a Kd (HLA-A*02:02; [11]) of 1.75 nM, a Kd (HLA-A*02:03; [11]) of 5.34 nM and a Kd (HLA-A*02:06; [11]) of 37.1 nM.
VTDKTAYIGT showed a Kd (HLA-A*02:02; [7]) of no less than 21800 nM, a Kd (HLA-A*02:03; [7]) of 4000 nM and a Kd (HLA-A*02:06; [7]) of 227 nM.
Work on AGILKRWGTI yielded a Kd (HLA-A*32:01; [6]) of 8820 nM.
With KISISYIKL the Kd (HLA-A*30:01; [7]) was 292 nM.
Work on YMLFTKFFYL yielded a Kd (HLA-A*02:02; [11]) of 47.7 nM, a Kd (HLA-A*02:03; [11]) of 45.8 nM and a Kd (HLA-A*02:06; [11]) of 20.3 nM.
Sequence KTLAPFNFL has a Kd (HLA-A*30:01; [7]) of 15 nM.
Work on LSPETLVGV yielded an IC50 (HLA-A*02:01 [2]; source organism: Vaccinia virus) of 0.904 µM.
Work on SGQSPARTS yielded an IC50 (HLA-A*02:01 [2]; [12]) of no less than 234 µM.
Work on TEHGTIATI yielded a Kd (HLA-B*40:01 [3]; [9]) of 80 nM.
NASKFVYVSV gave a Kd (HLA-A*02:02; [7]) of 4550 nM, a Kd (HLA-A*02:03; [7]) of 8.57 nM and a Kd (HLA-A*02:06; [7]) of 823 nM.
NMDWRSLTQV was tested, and the Kd (HLA-A*02:02; [7]) was 100 nM, the Kd (HLA-A*02:03; [7]) was 17.4 nM and the Kd (HLA-A*02:06; [7]) was 1.69 nM.
ISGVFPVSI gave a Kd (HLA-A*32:01; [6]) of 1120 nM.
For ITYWSRFTI, the Kd (HLA-A*32:01; [7]) was 2.48 nM.
In the case of ETFKVIGGW, the Kd (HLA-A*26:01; source organism: Influenza A virus (A/swine/Italy/1654-1/99(H1N2))) is reported as 182 nM.
HGLFPQLSA showed an IC50 (HLA-A*02:01 [2]; [12]) of 47.9 µM.
With GTEMFRHGY the Kd (HLA-A*01:01) was 241 nM, the Kd (HLA-A*03:01; [13]) was 2730 nM and the Kd (HLA-A*11:01) was 166 nM. For the same sequence, the Kd (HLA-A*31:01) was 8.18 µM, the Kd (HLA-A*69:01; [13]) was 4.45 µM and the Kd (HLA-B*15:01; [13]) was 1160 nM.
Work on TAFFNTCKPT yielded a Kd (HLA-A*02:02; [7]) of no less than 31600 nM, a Kd (HLA-A*02:03; [7]) of no less than 22300 nM and a Kd (HLA-A*02:06; [7]) of no less than 33000 nM.
For YNLSLSAAV, the Kd (HLA-A*02:02; [14]) was 867 nM, the Kd (HLA-A*02:03; [14]) was 1140 nM and the Kd (HLA-A*02:06; [14]) was 1660 nM.
SQFSYKELYV gave a Kd (HLA-A*02:02; [7]) of 14.1 nM, a Kd (HLA-A*02:03; [7]) of 27.2 nM and a Kd (HLA-A*02:06; [7]) of 71.4 nM.
For KLYGYASLTT, the Kd (HLA-A*02:02; [7]) was 1.88 nM, the Kd (HLA-A*02:03; [7]) was 0.261 nM and the Kd (HLA-A*02:06; [7]) was 34 nM.
For DVGCLLTDT, the Kd (HLA-A*02:02; [7]) was no less than 77800 nM, the Kd (HLA-A*02:03; [7]) was no less than 65400 nM and the Kd (HLA-A*02:06; [7]) was no less than 77100 nM.
With FVYHPDRLK the Kd (HLA-A*03:01; source organism: Escherichia coli O157:H7) was 46.7 nM.
Sequence TWAYHGSYET has a Kd (HLA-A*24:02; [6]) of 2160 nM.
LEFEALGFMN gave a Kd (HLA-B*40:01 [3]; [9]) of 2660 nM.
EDMLTVWNRV was tested, and the Kd (HLA-A*32:01; [8]) was 13600 nM.
With HMILVVVTT the Kd (HLA-A*32:01; source organism: Dengue virus 4 Philippines/H241/1956) was no less than 77800 nM.
Work on EHAGVISVL yielded a Kd (HLA-A*69:01; source organism: Homo sapiens) of 4.64 µM and a Kd (HLA-B*40:01 [4]) of 364 nM.
KLDDTGKKEL was tested, and the Kd (HLA-A*02:02; [7]) was 101 nM, the Kd (HLA-A*02:03; [7]) was 139 nM and the Kd (HLA-A*02:06; [7]) was 5530 nM.
For VMNPLGLNV, the Kd (HLA-A*02:01 [1]; [15]) was 320 nM and the Kd (HLA-A*69:01; [15]) was 0.78 µM.
Sequence NLILNFLDWI has a Kd (HLA-A*02:02; [7]) of 1690 nM, a Kd (HLA-A*02:03; [7]) of 283 nM and a Kd (HLA-A*02:06; [7]) of 443 nM.
Work on VLYNNVVEF yielded a Kd (HLA-A*32:01; [7]) of 1.45 nM.
FMNEDHWFSR was tested, and the Kd (HLA-A*32:01; [9]) was 7080 nM and the Kd (HLA-A*33:01) was 13.2 nM.
TEDDLQNEEL was tested, and the Kd (HLA-B*40:01 [3]; source organism: Dengue virus 4 Dominica/814669/1981) was 136 nM.
In the case of TIKESLLKET, the Kd (HLA-A*02:02; [7]) is reported as 1580 nM, the Kd (HLA-A*02:03; [7]) is reported as 149 nM and the Kd (HLA-A*02:06; [7]) is reported as 87.2 nM.
PGPDNSTHN showed an IC50 (HLA-A*02:01 [2]; [12]) of no less than 472 µM.
QWMTTEDMLT gave a Kd (HLA-A*24:02; [8]) of 6100 nM.
LEHGGCVTTM was tested, and the Kd (HLA-B*40:01 [3]; [8]) was 9.41 nM.
